Changes are numbered by the printed parent chain.
How the values were obtained:
[1] = target: T1, human MCAM C272A mutant (shotgun mutagenesis library, on BHK cells) (human, UniProt P43121 24-646); test: shotgun mutagenesis library, immunofluorescence on BHK cells, 0.5 µg/mL antibody
T1 chain: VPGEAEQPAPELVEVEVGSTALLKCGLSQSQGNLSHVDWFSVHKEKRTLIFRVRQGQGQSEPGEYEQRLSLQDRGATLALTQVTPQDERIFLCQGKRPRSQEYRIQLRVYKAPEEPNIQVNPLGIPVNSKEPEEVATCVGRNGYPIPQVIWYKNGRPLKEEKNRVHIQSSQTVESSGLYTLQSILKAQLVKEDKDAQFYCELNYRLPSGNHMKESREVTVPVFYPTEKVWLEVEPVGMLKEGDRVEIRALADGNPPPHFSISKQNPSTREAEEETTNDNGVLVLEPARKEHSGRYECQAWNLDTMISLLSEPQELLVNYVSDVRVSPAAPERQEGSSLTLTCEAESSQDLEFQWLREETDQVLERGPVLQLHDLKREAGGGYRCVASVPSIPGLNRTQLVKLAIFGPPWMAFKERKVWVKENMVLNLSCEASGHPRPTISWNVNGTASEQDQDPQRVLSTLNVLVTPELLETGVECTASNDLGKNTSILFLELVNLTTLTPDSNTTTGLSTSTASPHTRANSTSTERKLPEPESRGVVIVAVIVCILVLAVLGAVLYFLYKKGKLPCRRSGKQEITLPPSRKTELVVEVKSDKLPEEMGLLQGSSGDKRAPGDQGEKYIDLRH
Method: (§1) Secondary antibodies from Jackson ImmunoResearch were used at 1:400 for MAb and sera detection.
(§2) The mutation library was assayed for surface expression (mouse sera binding) and monoclonal antibody binding, in triplicate. Each raw data point was background-subtracted and normalized to the wild type MCAM reactivity values. The mean monoclonal antibody binding value for each clone is plotted as a function of its mean surface expression value (FIG. 1, gray diamonds). Thresholds of <30% monoclonal antibody reactivity and >50% mouse sera binding were applied to identify clones (FIG. 1, black diamonds) that were negative for monoclonal antibody binding but positive for surface expression.

[2] = target: T2, human MCAM Y318A mutant (shotgun mutagenesis library, on BHK cells) (human, UniProt P43121 24-646); test: as above
T2 chain: T1 chain with A249C, Y295A
Method: as §1, §2

[3] = target: T3, human MCAM, full length, expressed on transfected cells (human, UniProt P43121 24-646); test: flow cytometry, blocking of recombinant human laminin 411 (20 ug/ml) binding to CHO cells expressing human MCAM
T3 construct: also called CD146; MUC18
T3 chain: T1 chain with A249C
Method: The 87 independent mouse fusion clones and 26 independent rat fusion clones described in Example 1 above as being capable of (i) binding to human MCAM, and (ii) blocking the interaction between human MCAM and the α-4 chain of laminin were further characterized as follows. First, IC50 quantitation for the ability of the monoclonal antibody to block the binding of human MCAM to the α-4 chain of laminin was determined as follows. CHO cells expressing human MCAM were incubated with an anti-human MCAM antibody (at various concentrations) for 30 minutes at 4 degrees Celsius. […] Unbound laminin was then washed away, and the laminin bound to the surface of the cells was detected with fluorescently labeled anti-laminin antibodies. After washing, the amount of laminin bound to the surface was detected by flow cytometry, and IC50s were calculated based on the mean fluorescent intensity.
Amino acid and nucleic acid sequences of the heavy and light chains of these antibodies, and their hypervariable regions, are provided in SEQ ID NOs:29-92. […] As such, each of these specific monoclonal antibodies was very capable of binding to human MCAM and inhibiting the interaction of cell-expressed human MCAM with its α-4 laminin binding ligand.

B1: mouse anti-human MCAM monoclonal antibody clone 1749.1.3 (antibody, V domains shown)
VH: DVKLVESGGDLVKPGGSLKLSCAASGFTFSSYIMSWVRQTPEKRLEWVATISSGGSSTYYPDSVKGRFTISRDNAKNTLYLQMSSLKSEDTAMYYCTRDDDYDVKVFAYWGQGTLVTVSA
VL: DIVMSQSPSSLAVSAGEKVTMNCKSSRSLLNSRIRKNYLAWYQQKPGQSPKLLIYWASTRESGVPDRFTGSGSGTDFTLTISSVQAEDLAVYYCKQSYNLLTFGAGTKLELK
notes: Mouse hybridoma monoclonal antibody; also called m1749
In the case of B1, the binding result [1] is reported as “no binding (tested: <30% WT)”, the binding result [2] is reported as “no binding (tested: <30% WT)” and the IC50 [3] is reported as 0.545 µg/mL.
